Experimental findings from US20220089678A1 are described below.

The assay has as its target human BCMA on cells (human) (UniProt Q02223). The experiment in a line: cell-based or functional assay.

human BCMA on cells (human), sequence (Q02223 whole entry): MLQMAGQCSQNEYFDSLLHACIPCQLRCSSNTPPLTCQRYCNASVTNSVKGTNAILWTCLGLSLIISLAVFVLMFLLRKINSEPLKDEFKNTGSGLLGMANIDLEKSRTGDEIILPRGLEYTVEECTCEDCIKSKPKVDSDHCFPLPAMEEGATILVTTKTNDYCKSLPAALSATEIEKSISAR

B1: CAR with OX40-CD3z cytoplasmic domain of SEQ ID: 105 (protein, part only; not given: anti-BCMA scFv, hinge, transmembrane, part only)
chain, part: RRDQRLPPDAHKPPGGGSFRTPIQEEQADAHSTLAKIRVKFSRSADAPAYQQGQNQLYNELNLGRREEYDVLDKRRGRDPEMGGKPRRKNPQEGLYNELQKDKMAEAYSEIGMKGERRRGKGHDGLYQGLSTATKDTYDALHMQALPPR
Regarding B1, the Killing (% killed), Effector:target ratio of 1:10 came out at 46%.
